The values below come from patent publication US20050182242A1, “Global analysis of protein activities using proteome chips” (priority 2001, published 2005).

The subject of one series is PI(4,5)P2 liposomes. In words: Yeast proteome chip probed with PI(4,5)P2 liposomes. To be noted: liposome binding signal on yeast proteome chip, Cy3-streptavidin detection.
The test system of series [1] is phosphatidylcholine (PC) liposomes. The series is described as follows: Yeast proteome chip probed with PC liposomes. To be noted: liposome binding signal on yeast proteome chip, Cy3-streptavidin detection. The procedure, abridged: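 Sonicated liposomes in TBS, of phosphatidylcholine with 1% (w/w) biotin-DHPE plus 5% (w/w) of the named phosphoinositide (PC-only liposomes lacking it), were incubated on blocked chips of GST-RGS-His6-tagged yeast ORF proteins for 1 h at RT. Bound liposomes were detected with Cy3- or Cy5-streptavidin after PBS washes.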

The next series concerns PI(3,4)P2 liposomes. The series is described as follows: Yeast proteome chip probed with PI(3,4)P2 liposomes. The conditions noted are these: liposome binding signal on yeast proteome chip, Cy3-streptavidin detection.
In another series the test system is PI(4)P liposomes. In words: Yeast proteome chip probed with PI(4)P liposomes. To be noted: liposome binding signal on yeast proteome chip, Cy3-streptavidin detection.
The next series has as its system PI(3)P liposomes. The series is described as follows: Yeast proteome chip probed with PI(3)P liposomes. To be noted: liposome binding signal on yeast proteome chip, Cy3-streptavidin detection.
Series [2] has as its system phospholipids (phosphatidylinositols vs phosphatidylcholine). In words: Proteome chip lipid-binding screen, overall analysis of six liposomes (PI/PC specificity). The conditions noted are these: compared with phosphatidylcholine. Summed up:
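Yeast proteome chips probed with PC liposomes carrying 1% biotin DHPE, plus 5% PI(3)P, PI(4)P, PI(3,4)P2, PI(4,5)P2 or PI(3,4,5)P3, 1 h at RT. Binding detected with Cy3/Cy5-streptavidin; PI signals normalized to PC signals, giving PI/PC ratios (>1.3 taken as PI-preferential).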

B1: CMK1: yeast calcium/calmodulin-dependent serine/threonine protein kinase, GST-HisX6 fusion (protein)
chain: MDDKVSEKESSPKQTEEDSEGKMAHVQPASYVNKKKYVFGKTLGAGTFGVVRQAKNTETGEDVAVKILIKKALKGNKVQLEALYDELDILQRLHHPNIVAFKDWFESKDKFYIITQLAKGGELFDRILKKGKFTEEDAVRILVEILSAVKYMHSQNIVHRDLKPENLLYIDKSDESPLVVADFGIAKRLKSDEELLYKPAGSLGYVAPEVLTQDGHGKPCDIWSIGVITYTLLCGYSAFRAERVQDFLDECTTGEYPVKFHRPYWDSVSNKAKQFILKALNLDPSKRPTAAELLEDPWIICTELKTHNLLPGLKEGLDARQKFRNSVERVRLNMKIQKLRDLYLEQTESDSDFDEGSQANGSVPPLKATDTSQLSKKLSEEEQSKLKSELTSKAFAQLVNTVLAEKEKFLNINRVCSSDSDLPGSDIKSLDEAKEKPEGKDTKTEE
modifications: left off: a dimerising Fc or GST
notes: yeast calcium/calmodulin-dependent serine/threonine protein kinase, GST-HisX6 fusion
As for B1, the “PI(4, 5)P2” value with PI(4,5)P2 liposomes was determined as 545.23. Further, the PC in series [1] is given as 1073.54. Moreover, the “PI(3, 4)P2” value in the series with PI(3,4)P2 liposomes turned out to be 1786.71. The “PI(4)P” value in the series with PI(4)P liposomes was determined as 105.39. Moreover, the “PI(3)P” value in the series with PI(3)P liposomes is 7.00.

B2: MY04: yeast class V myosin heavy chain, GST-HisX6 fusion (protein, UniProt P32492 1-1471, looked up)
Myosin-4: MSFEVGTKCWYPHKEQGWIGGEVTKNDFFEGTFHLELKLEDGETVSIETNSFENDDDHPTLPVLRNPPILESTDDLTTLSYLNEPAVLHAIKKRYMNGQIYTYSGIVLIAANPFDKVDHLYSREMIQNYSSKRKDELEPHLFAIAEEAYRFMVHEKANQTVVVSGESGAGKTVSAKYIMRYFASVQESNNREGEVEMSQIESQILATNPIMEAFGNAKTTRNDNSSRFGKYLQILFDENTTIRGSKIRTYLLEKSRLVYQPETERNYHIFYQILEGLPEPVKQELHLSSPKDYHYTNQGGQPNIAGIDEAREYKITTDALSLVGINHETQLGIFKILAGLLHIGNIEMKMTRNDASLSSEEQNLQIACELLGIDPFNFAKWIVKKQIVTRSEKIVTNLNYNQALIARDSVAKFIYSTLFDWLVDNINKTLYDPELDQQDHVFSFIGILDIYGFEHFEKNSFEQFCINYANEKLQQEFNQHVFKLEQEEYVKEEIEWSFIEFSDNQPCIDLIENKLGILSLLDEESRLPSGSDESWASKLYSAFNKPPSNEVFSKPRFGQTKFIVSHYAVDVEYEVEGFIEKNRDSVSLGHLDVFKATTNPIFKQILDNRELRSDDAPEEQNTEKKIMIPARLSQKKPTLGSMFKKSLGELMAIINSTNVHYIRCIKPNSEKKPWEFDNLMVLSQLRACGVLETIRISCAGFPSRWTFDEFVQRYFLLTDYSLWSGILYNPDLPKEAIVNFCQSILDATISDSAKYQIGNTKIFFKAGMLAFLEKLRTNKMNEICIIIQKKIRARYYRLQYLQTMESIKKCQSQIRSLLVRTRVDHELKTRAAILLQTNIRALWKREYYRAAIGQIIKLQCTCKRKLILDSVNRKFMLMAAVIIQSYIRSYGHKTDYRTLKRSSILVQSAMRMQLARRRYIVLQKEVEERNIRASYGIGLLEEAIEFKNSFILNLEMLNDSYTRLTQLLQGDLSNIPSKQRQEYETIVNGYNDKISKLKTLQVEIMNTLNKKNALKERKKKQSSLIQSHMQSLAAIKGNKPSRLSDEVKSMKQELAFIENVIAQDFTTTYSANKNDKVKGLGIAGQQVKPKLVNVIRRESGNPDLLELLMDLNCYTLEVTEGYLKKVNVTEVNGDNVLGPIHVITTVVSSLVRNGLLIQSSKFISKVLLTVESIVMSLPKDETMLGGIFWLSNLSRLPAFAANQKTLYEANGGDEKDKLTLIYLNDLENETLKVFDKIYSTWLVKFMKHASAHIEIFDMVLNEKLFKNSGDEKFAKLFTFLNEFDAVLCKFQVVDSMHTKIFNDTLKYLNVMLFNDLITKCPALNWKYGYEVDRNIERLVSWFEPRIEDVRPNLIQIIQAVKILQLKISNLNEFKLLFDFWYALNPAQIQAILLKYKPANKGEAGVPNEILNYLANVIKRENLSLPGKMEIMLSAQFDSAKNHLRYDTSAITQNSNTEGLATVSKIIKLDRK
modifications: GST-HisX6 tag
notes: yeast class V myosin heavy chain, GST-HisX6 fusion
Turning to B2, the “PI(4, 5)P2” value in the series with PI(4,5)P2 liposomes was found to be 4.79. Besides, in series [1], the PC was 103.89. Further, the “PI(3, 4)P2” value with PI(3,4)P2 liposomes is 171.73. In addition, the “preferential binding of particular phosphatidylinositol lipids” value in series [2] is “preferentially binds PI(4,5)P2”. Also, in the series with PI(4)P liposomes, the “PI(4)P” value is given as 36.58. For the same molecule, the “PI(3)P” value with PI(3)P liposomes stood at 2.00.
